Source: a protein production outcome set (Wang et al. 2014)

Assay: label from the status in PepcDB records

For “MANKENTSDEGLRVSYDVKTYHEQKYIDYTLRLREILKTLPSFAKDYFRAIEPTTSANTRISYAYDIRVFFRFLMENNPVYKNYTIDQFTLADIENLEPVDIEEYQEYLKVYKNDEKQVTNTEKGLARKMSALRSFYGYYFKRQAISKNPTLLVDMPKLHEKAIIRLDADEVVRLLDYVDHGGDHLTGQKKAYFEKTRNRDLAILTLLLGTGIRVSECVGLDINDVDFENNGIKVMRKGGNEMIVYFGEEVENALKTYMYTTRRTTLPLPGHENALFLSTQRKRMGVQAIENMVKKYAREVTPNKKITPHKLRSTYGTSLYKETGDIYLVADVLGHKDVNTTKKHYAAIDEDRRRQAANIVKLREV”, the protein production was “failed”.
With “MKTTLIISTYNRPEALSVCLDSVRFQTVMPDEVIVGDDGSTSETKDLIESFKKDFPVPLIHLWQEDKGFRLAMMRNKSVAAATGDYIIEIDGDIFLHNKFVEDHKRLAKPGHYLRGTRVNLGQKLTEEICKSKVNRRIYPWTIGIQNRAETAIHSTPVSNFFADRYKKNVSSGLGCNMSFWRSDFLAINGYDEFFEGWGKEDDDLTHRLQRKGCKKRSLRFAGIVYHLWHGHESMESDQKNAEYFRKNNEKNIVYCENGVSKYLKQELEHHHHHH” the protein production was “not failed”.
For “MENKQVSTTQAAAKEPLIGYVHSIETFGSVDGPGIRYVAFLQGCHMRCQYCHNPDTWKLNVGDQMTADEILEDAAKYRAFWGKTGGITVSGGESLVQIDFILDLFEKAKAMNISTCLDTSGQPFTREQPFFDKFERLMKVTDISLVDIKHIDSAKHKQLTQYGNENILDMIQYMAQHHDDMWIRHVLVPQRTDYDEDLKKLGDYIAKIPNDVVQKVEVLPYHTLGVKKYHEMKIKYRLEGIESPTQDRVANAEKLLHTADYNGYKTWMPLPKL”, the protein production was “failed”.
In the case of “MQDFGDNSGRAPAAGRSWRNTPSSFGVVAIAFHWTIAVLFVAQLALGYLMSRDSIDPVLQFNFFQYHKSIGFLVLALAVPRCLWSVFSRKPRAVDGEGPVSRFAARVAHSALLFLTLAVPLAGWAVASTSPLQIPSYVFDLVVVPGLPMTISDQAEAFWSDVHATLAYLAAVIVLLHVIAALWHHFIRRDPTLRRMLPLPDTTDNSRREISSGQ”, the protein production is reported as “failed”.
With “SASLPIRHLTPRDLTACADLSEDRGWPREEHKWGLLLAAGKGYGIDDPEGGLVSACVVTEYGPQDRPDLGAIGMVLVAERHARQGIGRRLMRHVMAEMATTPLTLCATPFGRPLYEELGFKVVGHSEMVRGYFAP” the protein production was “failed”.
With “MVGRRVSPALTKDDAHSYIIAVKETFHDEPTKYQEFIKLLNGVCDHRVDKYSVIARVEELMKDHQDLLLGFSVFLPPVSVEDFINKLKSKFVHLQTRFQSLDTHVVGAIRGLMKMFKEGKMSVKEVQEEVIDVLFYHEDLIEDFLRFFTKNPVSTASLLLQL” the protein production was “failed”.
With “MSLARTEKIYIYGASGHGLVCEDVAKNMGYKECIFLDDFKGMKFESTLPKYDFFIAIGNNEIRKKIYQKISENGFKIVNLIHKSALISPSAIVEENAGILIMPYVVINAKAKIEKGVILNTSSVIEHECVIGEFSHVSVGAKCAGNVKIGKNCFLGINSCVLPNLSLADDSILGGGATLVKNQDEKGVFVGVPAKRMEGGSHHHHHH” the protein production was “not failed”.
In the case of “AISPNRASHTLADIRNQLSTRILILDGAMGTMIQGYKLEEADYRGERFKDWHTDVKGNNDLLVLTQPHIIKQIHTDYLLAGADIIETNTFNATTIAMADYDMQSLSAEINREGARLAREACDAIEQATGKPRYVAGVLGPTNRTCSISPDVNDPGFRNIHFDELVTAYCESTRALIEGGADIIMVETIFDTLNAKAALFAIETVFDELFGANSPARLPVMISGTITDASGRTLTGQTTEAFYNSLRHIKPLSIGLNCALGPKELRPYVEELSRIAECYVSAHPNAGLPNEFGGYDETPEDMAKVIQEWAREGMLNIIGGCCGSTPEHIKVIREAVEQFAPRVLPEIPVACRLAGLEPLTIDAQTLFVNVGERTNVTGSAKF”, the protein production is reported as “failed”.
In the case of “MPIPQATADAFCALTGDDQWIHIDPARAEAEGLAGGDTVLPGALLLSLAVGGLGKALGYPEGTRSWQRSYERVRFLRPAPVGSRLRLEARESRRRPAGTGREVVVANVSLYSDLVEAGPVMEGCFTSLLEVAVQPLEHHHHHH”, the protein production is reported as “failed”.
With “MAAWRAEARRLAQAGVPAESVVWRVGAGEADLFADLPALPAGPARQIRLSREAVGSLETALCHADPERFGRAYGLLLRLADGTLRWGDRSDPALRKLLAQEKMVRREIHKMHAFVRFRELPSEGPRRAFAAWFEPDHPVEEAATPFFARRFGDMDWAIVTPEVTARFVAGQLDFALTEERTAPPADGTEELWRTYYANIFNPARLMVKAMQSEMPKRYWKNLPEAELIPGLIRGAAERAAEMQAAAPTEPPARTAAVARQRAAAAGGPAAAGDGSAPGTLAEAKTAAEGCRRCGLWANATQVVFGEGPATARMMIVGEQPGDREDLAGRPFVGPAGQLFDEEAAAAGLDRGSVYVTNAVKHFKFAPRGKRRIHQKPDAGEVTACRWWLDLERDLVRPRLIVAMGATALASLTGSGAGILKRRGSVERLDDGTPVFVTVHPSYILRLPDEAARVEERRRFRDDLQAARQLLERLD” the protein production was “failed”.
With “MSAVMARRIAVVGGGVAGLMAAWWASNYGYDVVVYEADLSSLTATRVSAGIIDPTIDISLAPVALETLSLLKRLGLGLESRLLWLHERGSCRRLERLLSDKGIIERSVAGEESIRLGRYTVNLGYGEELHVINTIIVDTGEFYSLASSASNVDIVEDSVEYVGCGSVGLKRGGSREFDAIIVAAGPWTGFISGLQALSNMLRVYRCEALIIRAGGGPFAVVDDILDFYLSIHASGDGVLGNGCCVEIASPLDGYRYSGDVLDAVISRSIERLEGLGEAELITPVSAPCVVGRDARPVLGMLPGCSRVYLLAGLDGVGVTLAPVLARLVVESIATGSQEPIPPEMAASRPTSSSESVVKEPVEEC” the protein production was “failed”.
For “MSQLEKAQAEYAGFIQEFQSAIISTISEQGIPNGSYAPFVIDDAKNIYIYVSGLAVHTKNIEANPLVNVLFVDDEAKTNQIFARRRLSFDCTATLIERESQKWNQVVDQFQERFGQIIEVLRGLADFRIFQLTPKEGRFVIGFGA”, the protein production was “not failed”.
With “MIDEPTGLYNRLRLQEDVSLRLQRDGALTVIAADLLPLALLNTIIRTLGYPFSNDLMLEARDRIRAELPDFTLYKISPTRFGLLLPRQQQEETESVCLRLLRAFESPVVCRGIPIKANVGLGVLPLADDTLDGDQDWLRLVVSAADDARDRGVGWARYNPPLDQAQQRLEHHHHHH” the protein production was “not failed”.
For “MSDNKPFGGSFGSNGGQYATTVQYGGTAAAPAKVSLGDTPAAAPAGDVIKDTTTAAFAADVIQESRRQPVLVDFWAPWCGPCKQLTPQLEKAVRAAGGKVKLVKMNIDDHPSIAGQLGIQSIPAVIAFKDGQPVDGFMGAIPESQIAEFITKVGGKGNGAPAVAEALAAATEAREAGDMQTAADIFDAILAQAPETIEAIAGLGELLFEAGDTEGAEALLATAPEAKKDAPVLAALRAKMALAAQAAELGNPAEFERRLAENPKDHQARFDLAMIQNARGERTAAADNLLAIIKADRGWNEDGARTQLLQFFEAWGMTDEATLAARRKLSALLFS”, the protein production was “failed”.
With “MAQPDREARPQFSHPTRQILTMLIVIGLSGFGVFVAMPRVLPVFQANPYLNGFILLVFIIGVLACFWQVVQLIGSVRWIEDFAAGQEREDTTPPSMLAPLASLLRSRAARMQISSSSTRSILDSVAERIEEEREITRYITNVLIYLGLLGTFFGLATTIPAVVDTIRSLNPQEGEEGLAVFNRLMTGLEAQLGGMGTAFGSSLLGLAGSLIVGLLELFTGHGQNRFYRELEEWLSTITRVGFSSGEEGHSESGAIAGVIDTMVEQMDALHAMFAASEEGRAEISGKLGALVETIAEMNQRQAETEDVTAALDRVAAGQETLIDFLREQGAHDGIDAESRMRLRSIDVQMLRILEEISAGRQESMAELRKDIELLAKALSVPRRPLRGVTRDEG” the protein production was “failed”.
In the case of “MRLILSQCLANLSVRFLMNRNSYNKIAHLWNVARNGFFGREREYLDAILSVAPIGSTILDLGCGTGRPMAEYIVSRGRCVLGVDQSEEMLRLARQKLPHEQWVLSSIESYEPVEGYHGALLWDSLFHIRRTEHELIVSKVVRGLPSGGRLMLTVGGSAHPEFTDFMYGEEFYYDSNTPQETETFLQRLSCRMVIGEYMNLPDGGRDKGRYAIVAEKILEHHHHHH”, the protein production is reported as “failed”.
